In publication PMC4878814, “Mechanism of Human Nucleocytoplasmic Hexosaminidase D” (Biochemistry, 2016):

Tests used:
hexosaminidase D (HexD) = target: T1, hexosaminidase D (HexD) (Homo sapiens, UniProt Q8WVB3); assay: inhibition of purified enzyme hydrolysis of PNP-GalNAc, absorbance, Lineweaver-Burk and nonlinear regression; type: biochemical
T1 construct: human HexD in pET30a vector, expressed in E. coli BL21(DE3)
T1 sequence (Q8WVB3 1-486): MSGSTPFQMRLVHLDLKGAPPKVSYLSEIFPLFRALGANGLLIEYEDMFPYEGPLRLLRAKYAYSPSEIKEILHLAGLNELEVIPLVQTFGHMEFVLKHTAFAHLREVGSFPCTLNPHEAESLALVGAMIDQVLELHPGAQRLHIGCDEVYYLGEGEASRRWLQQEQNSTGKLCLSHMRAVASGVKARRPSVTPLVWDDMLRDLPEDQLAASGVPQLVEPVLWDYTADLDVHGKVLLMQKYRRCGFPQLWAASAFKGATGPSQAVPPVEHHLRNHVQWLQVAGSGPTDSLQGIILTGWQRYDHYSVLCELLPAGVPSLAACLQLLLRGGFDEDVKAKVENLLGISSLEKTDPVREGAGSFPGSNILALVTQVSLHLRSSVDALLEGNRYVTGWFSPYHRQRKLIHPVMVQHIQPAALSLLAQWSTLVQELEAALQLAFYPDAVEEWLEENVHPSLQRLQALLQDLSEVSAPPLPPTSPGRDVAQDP

murine HexD = target: T2, murine HexD (Mus musculus, UniProt Q3U4H6); assay: enzyme inhibition, preliminary studies (data not shown); type: biochemical
T2 sequence (Q3U4H6 1-486): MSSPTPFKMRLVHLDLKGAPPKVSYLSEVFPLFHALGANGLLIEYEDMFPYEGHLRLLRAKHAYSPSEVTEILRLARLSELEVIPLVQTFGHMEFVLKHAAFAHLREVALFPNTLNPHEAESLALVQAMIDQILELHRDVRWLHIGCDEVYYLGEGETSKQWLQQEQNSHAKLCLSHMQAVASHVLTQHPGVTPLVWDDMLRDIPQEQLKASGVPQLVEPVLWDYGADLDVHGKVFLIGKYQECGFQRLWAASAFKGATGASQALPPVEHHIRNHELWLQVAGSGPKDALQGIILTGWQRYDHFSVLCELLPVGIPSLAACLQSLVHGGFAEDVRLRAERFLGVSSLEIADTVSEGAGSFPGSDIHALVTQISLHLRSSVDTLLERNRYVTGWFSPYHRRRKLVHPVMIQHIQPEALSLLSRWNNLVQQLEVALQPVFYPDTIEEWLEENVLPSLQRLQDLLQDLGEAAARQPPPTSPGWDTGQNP

[1] = substrate: CC(=O)N[C@H]1[C@H](Oc2ccc([N+](=O)[O-])cc2)O[C@H](CO)[C@H](O)[C@@H]1O; assay: Michaelis-Menten kinetics of hydrolysis by purified enzyme (KM); hydrolysis also followed by 1H NMR; type: biochemical, Homo sapiens; details: active site; Asp148 polarizing residue, Glu149 general acid/base
purified protein [2] = substrate: CC(=O)N[C@H]1[C@H](Oc2ccc([N+](=O)[O-])c(F)c2)O[C@H](CO)[C@@H](O)[C@@H]1O; assay: purified protein
purified protein [3] = substrate: CC(=O)N[C@H]1[C@H](Oc2ccc([N+](=O)[O-])c(F)c2)O[C@H](CO)[C@H](O)[C@@H]1O; assay: purified protein
purified protein [4] = substrate: CC(=O)N[C@H]1[C@H](Oc2ccc([N+](=O)[O-])cc2)O[C@H](CO)[C@@H](O)[C@@H]1O; assay: purified protein
purified protein [5] = substrate: O=C(CF)N[C@H]1[C@H](Oc2ccc([N+](=O)[O-])cc2)O[C@H](CO)[C@H](O)[C@@H]1O; assay: purified protein
purified protein [6] = substrate: O=C(N[C@H]1[C@H](Oc2ccc([N+](=O)[O-])cc2)O[C@H](CO)[C@H](O)[C@@H]1O)C(F)(F)F; assay: purified protein
purified protein [7] = substrate: O=C(N[C@H]1[C@H](Oc2ccc([N+](=O)[O-])cc2)O[C@H](CO)[C@H](O)[C@@H]1O)C(F)F; assay: purified protein

**Q.** Which results are given for CC1=N[C@@H]2[C@@H](O)[C@@H](O)[C@@H](CO)O[C@@H]2S1 [compound 4, Gal-NAG-thiazoline]?
**A.** Ki (hexosaminidase D (HexD)): 420 nM; Ki (murine HexD): 520 nM

B1: hexosaminidase D (HexD) (Homo sapiens) (protein)
chain: MSGSTPFQMRLVHLDLKGAPPKVSYLSEIFPLFRALGANGLLIEYEDMFPYEGPLRLLRAKYAYSPSEIKEILHLAGLNELEVIPLVQTFGHMEFVLKHTAFAHLREVGSFPCTLNPHEAESLALVGAMIDQVLELHPGAQRLHIGCDEVYYLGEGEASRRWLQQEQNSTGKLCLSHMRAVASGVKARRPSVTPLVWDDMLRDLPEDQLAASGVPQLVEPVLWDYTADLDVHGKVLLMQKYRRCGFPQLWAASAFKGATGPSQAVPPVEHHLRNHVQWLQVAGSGPTDSLQGIILTGWQRYDHYSVLCELLPAGVPSLAACLQLLLRGGFDEDVKAKVENLLGISSLEKTDPVREGAGSFPGSNILALVTQVSLHLRSSVDALLEGNRYVTGWFSPYHRQRKLIHPVMVQHIQPAALSLLAQWSTLVQELEAALQLAFYPDAVEEWLEENVHPSLQRLQALLQDLSEVSAPPLPPTSPGRDVAQDP
notes: human HexD in pET30a vector, expressed in E. coli BL21(DE3)
**Q.** Which results are given for B1?
**A.** Km [1]: 72.1 ± 4.8 µM; kcat [1]: 1.32 ± 0.02 s⁻¹; kcat/Km [1]: 18200 ± 1250 M⁻¹ s⁻¹; Km (purified protein [2]): 852 ± 54 µM; kcat (purified protein [2]): 1.54 ± 0.045 s⁻¹; kcat/Km (purified protein [2]): 1820 ± 127 M⁻¹ s⁻¹; Km (purified protein [3]): 172 ± 19 µM; kcat (purified protein [3]): 2.03 ± 0.065 s⁻¹; kcat/Km (purified protein [3]): 11800 ± 1350 M⁻¹ s⁻¹; Km (purified protein [4]): 607 ± 53 µM; kcat (purified protein [4]): 0.507 ± 0.0148 s⁻¹; kcat/Km (purified protein [4]): 835 ± 76.7 M⁻¹ s⁻¹; Km (purified protein [5]): 533 ± 17 µM; kcat (purified protein [5]): 2.6 ± 0.0317 s⁻¹; kcat/Km (purified protein [5]): 4980 ± 183 M⁻¹ s⁻¹; Km (purified protein [6]): 103 ± 27 µM; kcat (purified protein [6]): 0.042 ± 0.00283 s⁻¹; kcat/Km (purified protein [6]): 408 ± 108 M⁻¹ s⁻¹; Km (purified protein [7]): 102 ± 16 µM; kcat (purified protein [7]): 0.27 ± 0.0108 s⁻¹; kcat/Km (purified protein [7]): 2650 ± 417 M⁻¹ s⁻¹
